We go through 2 molecules from PMC2859985 (Virus research, 2010).

For test [1], the target named is T1, importin alpha 3, His-tagged (human, UniProt O00629 1-521).
T1 sequence (looked up): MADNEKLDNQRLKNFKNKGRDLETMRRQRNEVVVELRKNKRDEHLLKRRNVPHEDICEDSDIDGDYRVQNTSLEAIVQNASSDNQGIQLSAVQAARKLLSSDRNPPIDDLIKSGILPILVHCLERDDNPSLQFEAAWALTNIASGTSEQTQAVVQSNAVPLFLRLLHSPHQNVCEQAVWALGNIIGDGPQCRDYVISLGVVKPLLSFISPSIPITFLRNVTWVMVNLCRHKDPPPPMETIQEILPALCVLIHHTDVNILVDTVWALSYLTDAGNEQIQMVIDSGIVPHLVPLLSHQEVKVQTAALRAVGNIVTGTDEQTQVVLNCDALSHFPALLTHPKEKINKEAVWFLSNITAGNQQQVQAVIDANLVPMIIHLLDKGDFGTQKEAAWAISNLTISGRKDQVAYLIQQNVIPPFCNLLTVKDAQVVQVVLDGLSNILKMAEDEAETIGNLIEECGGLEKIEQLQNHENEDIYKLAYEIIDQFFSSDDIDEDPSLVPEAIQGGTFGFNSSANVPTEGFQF
In words: pull-down.

Test [2] addresses importin alpha 5, His-tagged (human, UniProt P52294 1-538). In words: pull-down.

Sequence of importin alpha 5, His-tagged (P52294 whole entry): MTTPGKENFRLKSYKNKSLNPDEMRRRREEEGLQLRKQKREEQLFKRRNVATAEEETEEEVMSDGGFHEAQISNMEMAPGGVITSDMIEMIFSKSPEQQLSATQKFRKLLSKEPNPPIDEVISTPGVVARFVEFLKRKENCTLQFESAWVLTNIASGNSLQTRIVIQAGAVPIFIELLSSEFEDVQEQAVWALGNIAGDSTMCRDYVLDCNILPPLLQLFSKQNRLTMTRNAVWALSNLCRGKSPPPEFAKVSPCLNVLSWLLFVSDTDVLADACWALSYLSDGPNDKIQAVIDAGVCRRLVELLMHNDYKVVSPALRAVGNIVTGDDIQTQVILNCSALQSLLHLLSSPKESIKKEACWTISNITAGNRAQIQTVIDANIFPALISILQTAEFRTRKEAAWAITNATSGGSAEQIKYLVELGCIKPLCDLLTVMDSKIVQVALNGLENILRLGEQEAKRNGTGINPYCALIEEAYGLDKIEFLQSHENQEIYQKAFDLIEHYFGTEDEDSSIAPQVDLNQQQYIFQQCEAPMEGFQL

B1: GST-HPV11 E2 (natural protein)
chain: MEAIAKRLDACQDQLLELYEENSIDIHKHIMHWKCIRLESVLLHKAKQMGLSHIGLQVVPPLTVSETKGHNAIEMQMHLESLAKTQYGVEPWTLQDTSYEMWLTPPKRCFKKQGNTVEVKFDGCEDNVMEYVVWTHIYLQDNDSWVKVTSSVDAKGIYYTCGQFKTYYVNFNKEAQKYGSTNHWEVCYGSTVICSPASVSSTVREVSIAEPTTYTPAQTTAPTVSACTTEDGVSAPPRKRARGPSTNNTLCVANIRSVDSTINNIVTDNYNKHQRRNNCHSAATPIVQLQGDSNCLKCFRYRLNDKYKHLFELASSTWHWASPEAPHKNAIVTLTYSSEEQRQQFLNSVKIPPTIRHKVGFMSLHLL
Consider B1, for which the binding result in test [1] and in test [2] was “binds” each time.

B2: GST-HPV16 E2 (natural protein)
chain: METLCQRLNVCQDKILTHYENDSTDLRDHIDYWKHMRLECAIYYKAREMGFKHINHQVVPTLAVSKNKALQAIELQLTLETIYNSQYSNEKWTLQDVSLEVYLTAPTGCIKKHGYTVEVQFDGDICNTMHYTNWTHIYICEEASVTVVEGQVDYYGLYYVHEGIRTYFVQFKDDAEKYSKNKVWEVHAGGQVILCPTSVFSSNEVSSPEIIRQHLANHPAATHTKAVALGTEETQTTIQRPRSEPDTGNPCHTTKLLHRDSVDSAPILTAFNSSHKGRINCNSNTTPIVHLKGDANTLKCLRYRFKKHCTLYTAVSSTWHWTGHNVKHKSAIVTLTYDSEWQRDQFLSQVKIPKTITVSTGFMSI
As to B2, the binding result in test [2] is recorded as “binds”.
